Laboratory results published in patent US20220033505A1.

Legend:
[1] = biological target: HLA-A exogenously expressed on cells (K562-HLA-A) (human) (UniProt P04439); assay: flow cytometry; IgG1 mAb on cells expressing HLA-A
[2] = biological target: HLA-B exogenously expressed on cells (K562-HLA-B) (human) (UniProt P01889); assay: flow cytometry; IgG1 mAb on cells expressing HLA-B
[3] = biological target: HLA-C exogenously expressed on cells (K562-HLA-C) (human) (UniProt P10321); assay: flow cytometry; IgG1 mAb on cells expressing HLA-C
Chain of HLA-C exogenously expressed on cells (K562-HLA-C) (human) (P10321 25-366): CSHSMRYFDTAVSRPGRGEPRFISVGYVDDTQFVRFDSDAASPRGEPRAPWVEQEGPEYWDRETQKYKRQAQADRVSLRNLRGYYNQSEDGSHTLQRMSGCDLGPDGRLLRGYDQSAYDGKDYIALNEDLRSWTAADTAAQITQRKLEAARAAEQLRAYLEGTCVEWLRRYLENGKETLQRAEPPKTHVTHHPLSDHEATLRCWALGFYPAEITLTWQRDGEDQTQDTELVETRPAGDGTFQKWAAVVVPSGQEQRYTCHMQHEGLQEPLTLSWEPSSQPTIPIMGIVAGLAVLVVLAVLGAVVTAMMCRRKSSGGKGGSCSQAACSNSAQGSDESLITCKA

Chain of HLA-B exogenously expressed on cells (K562-HLA-B) (human) (P01889 25-362): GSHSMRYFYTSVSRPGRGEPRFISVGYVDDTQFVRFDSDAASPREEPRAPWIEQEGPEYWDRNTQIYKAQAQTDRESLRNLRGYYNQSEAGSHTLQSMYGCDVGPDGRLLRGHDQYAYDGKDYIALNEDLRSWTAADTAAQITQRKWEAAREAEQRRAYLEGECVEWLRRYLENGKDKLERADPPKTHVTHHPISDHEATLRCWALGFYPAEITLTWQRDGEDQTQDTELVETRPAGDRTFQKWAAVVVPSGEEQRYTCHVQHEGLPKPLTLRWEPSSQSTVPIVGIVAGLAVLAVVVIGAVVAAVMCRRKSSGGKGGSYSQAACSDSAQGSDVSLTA

- Geomean fluorescence signal (maximum value for binding) [1]: 2540
- Geomean fluorescence signal (maximum value for binding) [2]: 5790
- Geomean fluorescence signal (maximum value for binding) [3]: 266
B1: MHGB689 (antibody, human IgG1, kappa, V domains shown)
VH: QVQLQQSGPGLVKPSQTLSLTCVISGDSVSSNRAAWNWIRQSPSRGLEWLGRTYYRSKWYNDYAVSVKSRITINSDTSKNQISLQLNSVTPEDTAVYYCARVRPGIPFDYWGQGTTVTVSS
VL: DIQMTQSPDSLAVSLGERATINCESSQSVLFSSNKKNYLAWYQQKPGQPPKLLIYWASTRESGVPDRFSGSGSGTDFTLTINRLQAEDVAVYYCQQYNSTPWTFGQGTKVEIKR
